Common to all, as to conditions: both partners purified
The target of assay [1] is T1, N-terminally tagged P672 (P672_RHIPU), glycosylated (Rhipicephalus pulchellus, UniProt L7MC74 22-125).
T1 construct: source: HEK293F, transiently transfected, purified from culture supernatant (nickel IMAC, size exclusion chromatography)
T1 sequence: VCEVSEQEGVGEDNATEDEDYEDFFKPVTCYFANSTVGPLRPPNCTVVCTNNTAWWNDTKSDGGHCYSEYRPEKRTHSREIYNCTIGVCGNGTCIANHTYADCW
Description: BLI. A general note: In BLI a coated tip is dipped into the sample, and binding shifts an interference pattern.

For assay [2], the target named is T2, P672 with residues Val-1—Thr-16 truncated (Rhipicephalus pulchellus, UniProt L7MC74 38-125).
T2 sequence: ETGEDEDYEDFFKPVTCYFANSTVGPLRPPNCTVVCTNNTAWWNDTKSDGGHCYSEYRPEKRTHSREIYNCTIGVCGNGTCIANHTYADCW
Description: BLI.

The target of assay [3] is T3, partially deglycosylated N-terminally tagged P672 (Rhipicephalus pulchellus, UniProt L7MC74 22-125).
T3 sequence: T1 sequence
Description: BLI.

The target of assay [4] is T3, partially deglycosylated N-terminally …. Description: native MS.

B1: CCL11 (ligand)
chain: not shown
As to B1, the Kd in assay [1] was < 10 nM.

B2: CCL8 (human chemokine panel) (ligand, UniProt P80075 24-99, looked up)
chain: QPDSVSIPITCCFNVINRKIPIQRLESYTRITNIQCPKEAVIFKTKRGKEVCADPKERWVRDSMKHLDQIFQNLKP
notes: also called MCP-2
Turning to B2, the Kd in assay [2] was 30.4 nM; in assay [3], 72.5 nM.

B3: human CCL8 (residues Gln-24 to Pro-99), expressed in E. coli (ligand, UniProt P80075 24-99, looked up)
chain: B2 chain
notes: also called Purified CCL8
For the molecule B3, the “stoichiometry N” value in assay [4] was determined as 1.

B4: CCL23 (ligand, human, UniProt P55773 22-120, looked up)
chain: RVTKDAETEFMMSKLPLENPVLLDRFHATSADCCISYTPRSIPCSLLESYFETNSECSKPGVIFLTKKGRRFCANPSDKQVQVCMRMLKLDTRIKTRKN
In the case of B4, in assay [1], the Kd is < 10 nM.

B5: CCL7 (ligand)
chain: not shown
notes: also called MCP-3
B5: in assay [1], the binding result is “binds”.

B6: CCL3 (ligand, human, UniProt P10147 24-92, looked up)
chain: SLAADTPTACCFSYTSRQIPQNFIADYFETSSQCSKPGVIFLTKRSRQVCADPSEEWVQKYVSDLELSA
On to B6, for which the binding result in assay [1] was “binds”.

B7: CCL1 (ligand, human, UniProt P22362 24-96, looked up)
chain: KSMQVPFSRCCFSFAEQEIPLRAILCYRNTSSICSNEGLIFKLKRGKEACALDTVGWVQRHRKMLRHCPSKRK
As to B7, the binding result in assay [1] was “binds”.

B8: CCL18 (ligand, human, UniProt P55774 21-89, looked up)
chain: AQVGTNKELCCLVYTSWQIPQKFIVDYSETSPQCPKPGVILLTKRGRQICADPNKKWVQKYISDLKLNA
Turning to B8, in assay [1], the Kd was < 10 nM.

B9: CCL16 (ligand, human, UniProt O15467 24-120, looked up)
chain: QPKVPEWVNTPSTCCLKYYEKVLPRRLVVGYRKALNCHLPAIIFVTKRNREVCTNPNDDWVQEYIKDPNLPLLPTRNLSTVKIITAKNGQPQLLNSQ
Turning to B9, in assay [1], the binding result is given as “binds”.

B10: CCL3L1 (ligand, human, UniProt P16619 24-93, looked up)
chain: APLAADTPTACCFSYTSRQIPQNFIADYFETSSQCSKPSVIFLTKRGRQVCADPSEEWVQKYVSDLELSA
In the case of B10, the binding result in assay [1] is listed as “binds”.

B11: CCL14 (ligand, human, UniProt Q16627 20-93, looked up)
chain: TKTESSSRGPYHPSECCFTYTTYKIPRQRIMDYYETNSQCSKPGIVFITKRGHSVCTNPSDKWVQDYIKDMKEN
Turning to B11, in assay [1], the Kd is < 10 nM.

A word on the Kd: it is the equilibrium constant for the complex coming apart. A low value points to a tighter complex. For orientation: stoichiometry N means a count of units in the complex or per binding partner.

These data come from publication PMC5912465, “The N-terminal domain of a tick evasin is critical for chemokine binding and neutralization and confers specific binding activity to other evasins” (The Journal of Biological Chemistry, 2018).
